What was measured:
Kv2.1 surface clusters = target: T1, Kv2.1 surface clusters (Rattus norvegicus, UniProt P15387); assay: Kv2.1 surface cluster density in live Kv2.1-GFP-transfected cortical neurons treated with TAT-linked peptides; format: cell-based
T1 construct: expressed in transfected cells; host or cells: primary rat cortical neurons (E16-17 Sprague-Dawley), Lipofectamine 2000
T1 sequence (P15387 1-857): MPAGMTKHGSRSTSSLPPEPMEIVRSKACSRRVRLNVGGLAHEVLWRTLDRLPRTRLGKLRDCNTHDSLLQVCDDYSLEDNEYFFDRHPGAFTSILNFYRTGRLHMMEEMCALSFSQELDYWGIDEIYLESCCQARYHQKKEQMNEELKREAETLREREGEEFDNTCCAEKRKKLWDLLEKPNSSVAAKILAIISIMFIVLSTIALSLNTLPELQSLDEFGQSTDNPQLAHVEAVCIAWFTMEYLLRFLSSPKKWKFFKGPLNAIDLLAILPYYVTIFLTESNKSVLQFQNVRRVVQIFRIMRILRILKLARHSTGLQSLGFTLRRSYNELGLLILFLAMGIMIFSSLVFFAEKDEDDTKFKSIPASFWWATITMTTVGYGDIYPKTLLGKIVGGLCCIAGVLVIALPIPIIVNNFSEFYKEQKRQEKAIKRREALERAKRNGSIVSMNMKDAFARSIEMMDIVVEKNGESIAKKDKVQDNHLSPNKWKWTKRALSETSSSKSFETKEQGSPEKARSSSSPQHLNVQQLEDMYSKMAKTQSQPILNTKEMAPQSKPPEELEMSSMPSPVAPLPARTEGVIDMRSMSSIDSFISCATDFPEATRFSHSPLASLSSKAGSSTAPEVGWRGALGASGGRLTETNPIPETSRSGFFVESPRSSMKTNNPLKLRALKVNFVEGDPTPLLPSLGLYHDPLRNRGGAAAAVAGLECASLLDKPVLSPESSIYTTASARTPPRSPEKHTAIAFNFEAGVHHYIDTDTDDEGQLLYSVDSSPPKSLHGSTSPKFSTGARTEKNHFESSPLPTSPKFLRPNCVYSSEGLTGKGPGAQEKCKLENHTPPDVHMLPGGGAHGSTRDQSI
Description: In vitro experiments utilized primary cortical neuronal cultures prepared from embryonic day 16-17 Sprague-Dawley rats of either sex in a protocol described previously (McCord et al., J Physiol (Lond). 592: 3511-3521, 2014). Timed-pregnant rats (Charles River Laboratories, Wilmington, Mass.) were sacrificed by CO2 inhalation. Embryonic cortices were dissociated with trypsin (0.6 mg/mL) and cells plated in sterile 6-well plates on poly-L-ornithine-coated glass coverslips at a density of 670,000 cells per well. Cytosine arabinoside (1-2 μM) was utilized to inhibit non-neuronal proliferation on day 14 in vitro (DIV); cultures were utilized at 21-25 DIV.
; Invitrogen, Carlsbad, Calif.). […]; Thermo Fisher Scientific, Waltham, Mass.). […]. Cultures were utilized 18-24 hours following transfection. cDNA amounts for each transfection experiment are described below for each figure. FIG. 1: 0.375 μg/well Kv2.1-GFP plasmid, 0.495 μg/well pcDNA3 vector plasmid, and 0.63 μg/well of either DP-1 or Sc-1, or Kv2.2 CT-expressing plasmid. FIGS. 2, 8, 9, 10, 12: 0.375 μg/well Kv2.1-GFP plasmid, 0.15 μg/well tdTomato plasmid (from Gerhart Ryffel; Addgene plasmid #30530), and 0.975 μg/well pcDNA3 vector plasmid.
To analyze Kv2.1 distribution in live primary cortical neurons, cells were transfected with both a tdTomato construct and a GFP-tagged Kv2.1 construct (O'Connell, et al., J Neurosci. 26: 9609-9618, 2006) and imaged on a Nikon A1+ confocal microscope (Nikon, Tokyo, Japan). Cells were chosen at random by looking only at the tdTomato signal (561 nm), in order to avoid bias. At least three separate culture dates were used per experiment and three coverslips were transfected per condition each time. For these experiments, “n” refers to the total number of cells imaged. Five to 15 optical sections (0.5 μm) capturing the cell surface were obtained of single cells at 60× magnification (Schulien et al., J Physiol (Lond). 594: 2647-2659, 2016), creating a maximum-intensity projection (MAX-IP) of Kv2.1-GFP distribution. To analyze Kv2.1 distribution in the cerebral cortex of fixed brain slices, 51-54 image fields were obtained at 60× magnification across 18 sections from three fixed mouse brains per treatment (total of 6 animals). Image fields were captured by first focusing on an area of superficial cortex closest to the cover glass. Next, 24 optical sections (0.5 μm) were obtained moving deeper into the tissue in order to produce a 12 μm maximum-intensity projection for analysis of Kv2.1 distribution. Laser power, HV (gain), offset, pinhole size, and all camera parameters were kept identical between all samples in a given experiment. Nikon Instruments Software Advanced Research (NIS-Elements AR) was utilized to analyze GFP-tagged Kv2.1 channel cluster distribution. For live images of transfected neurons, object count parameters were customized to define a Kv2.1 cluster as an area of high intensity GFP fluorescence (compared to background), measuring 0.05 μm^2 or larger (Schulien et al., J Physiol (Lond). 594: 2647-2659, 2016). Kv2.1 cluster density was calculated by normalizing the number of Kv2.1 clusters counted to the somatic area of each neuron (#Kv2.1 clusters/μm^2). Due to high variability in GFP-Kv2.1 expression between individual neurons, intensity thresholding required cell-specific local-background subtraction. In each neuron analyzed, two populations on Kv2.1-GFP expression were first noted—(a) highly localized signals of clustered Kv2.1 channels, and (b) diffuse background staining that represents freely-dispersed, conducting Kv2.1 channels on the plasma membrane. A small region of interest (ROI) within region (b) was set as the background subtraction standard of the image, creating an optimal signal-to-noise ratio for clustered Kv2.1 channels. […]

[1] = target: T2, Kv2.1-mediated potassium currents (Rattus norvegicus, UniProt P15387); assay: Whole-cell voltage clamp of Kv2.1-mediated potassium current densities with or without TBOA; format: cell-based; conditions: voltage step from -80 mV to 30 mV, mean±SEM (FIG. 4A)
T2 construct: endogenous in cells; host or cells: primary rat cortical neurons
T2 sequence (P15387 1-857): T1 sequence (P15387 1-857)

[2] = 3 μM peptide, two-hour treatment, mean±SEM (FIG. 2B)
[3] = 10 μM peptide, two-hour treatment, mean±SEM (FIG. 2B)
[4] = 10 μM peptide + TBOA (60 μM), 3-5 hours after treatment

Sequence	mean Kv2.1 surface cluster density (Kv2.1 surface clusters; [2])	mean Kv2.1 surface cluster density (Kv2.1 surface clusters; [3])	mean Kv2.1-mediated potassium current density [1, 4] [pA/pF]	mean Kv2.1-mediated potassium current density ([1]; 10 μM peptide without TBOA) [pA/pF]	mean Kv2.1 surface cluster density (Kv2.1 surface clusters; 10 μM, 2 h after initiation of treatment, mean+/-SEM (FIG. 9))	mean Kv2.1 surface cluster density (Kv2.1 surface clusters; 10 μM, 24 h after initiation of treatment, peptide removed after two hours, mean+/-SEM (FIG. 9))	time-course of Kv2.1 surface cluster dispersal (Kv2.1 surface clusters; 10 μM, before, 60 and 120 minutes post-treatment (FIG. 8))	concentrations at which effective as in vitro declustering tool (Kv2.1 surface clusters; hypothesized from the 3 μM and 10 μM results) [µM]
YGRKKRRQRRRDFSSIST [TAT-Sc-2, TAT-linked scramble control peptide]	0.15±0.01 #Kv2.1 clusters/μm^2 of neuronal soma	0.16±0.02 #Kv2.1 clusters/μm^2 of neuronal soma	130.80±9.43	71.42±10.27				
YGRKKRRQRRRSIDSFTS [TAT-DP-2, TAT-linked declustering peptide 2]	0.07±0.02 #Kv2.1 clusters/μm^2 of neuronal soma	0.08±0.01 #Kv2.1 clusters/μm^2 of neuronal soma	65.68±12.07	66.86±4.76	0.06±0.01 #Kv2.1 clusters/μm^2 of neuronal soma	0.09±0.01 #Kv2.1 clusters/μm^2 of neuronal soma	time-dependent	3 to 10
